We go through three molecules from US7067302B2, “DNA and amino acid sequence of a tyrosine ammonia lyase enzyme from the bacterium Rhodobacter sphaeroides” (E. I. du Pont de Nemours and Company, priority 2002, dated 2006).

Series [1] can be described thus: Kinetic analysis of purified RsTAL with tyrosine (Lineweaver-Burk). Format: biochemical. The protocol:
Crude cell extracts were generated by sonication of a suspension of the transformed cells, followed by centrifugation. The TAL enzyme activity of the crude cell extracts was determined by an enzyme assay using 40 μg of crude cell extract in 10 mM Tris-HCl, pH 8.5 buffer containing 1 mM tyrosine. The OD of the pHCA produced was followed at 315 nm with an extinction coefficient of […]. The results of the TAL enzyme assay are given in Table 5 in terms of activity units. A unit (U) is defined as follows: one unit of activity deaminated 1 μmol of tyrosine to pHCA per min.
(§1) A 500 mL culture of the E. coli BL21(DE3)RP(pKK233.RsTAL2) strain was grown in LB Broth, containing […] ampicillin to mid log phase, induced with 1 mM IPTG, and incubated overnight (18 h) in a 37° C. shaker. The cells were centrifuged and resuspended in 10 mL of Buffer A (50 mM Tris-HCl, pH 8.5 buffer, 5 mM DTT (dithiothreitol), and 1 mM tyrosine) containing one and a half EDTA-free protease inhibitor tablets (Roche Applied Science, Indianapolis, Ind.). The cells were then passed through a French Press Cell twice, and centrifuged at 18000 rpm for 20 min. Ammonium sulfate at 30% saturation was added to the […] supernatant and the resulting precipitate was removed by centrifugation. The supernatant from this first fractionation was then treated with ammonium sulfate at 50% saturation. […] The eluted fractions were analyzed for TAL activity, and the fractions containing TAL activity were pooled, precipitated again using ammonium sulfate at 50% saturation, and desalted using a 3 mL desalting column (Bio-Rad Laboratories, Hercules, Calif.). […] TAL activity was detected in the flow-through fractions. […]
The kinetic parameters of the RsTAL enzyme were characterized using'the TAL enzyme assay described above. The initial rates of the enzyme reaction were measured at tyrosine concentrations of 0.01 to 10 mM in 50 mM Tris-HCl, pH 8.5 buffer. The values of kcat and Km of the RsTAL enzyme for both tyrosine and phenylalanine were determined using Lineweaver-Burk analysis and the results are given in Table 6.

Series [2] in a line: Kinetic analysis of purified RsTAL with phenylalanine (Lineweaver-Burk). The settings on record: substrate phenylalanine. Format: biochemical. The protocol:
as §1
The kinetic parameters of the RsTAL enzyme were characterized using'the TAL enzyme assay described above. The initial rates of the enzyme reaction were measured at tyrosine concentrations of 0.01 to 10 mM in 50 mM Tris-HCl, pH 8.5 buffer. […]

The conditions of series [3]: literature values; cited from earlier work.
[4] abbreviates: substrate tyrosine, 50 mM Tris-HCl, pH 8.5.

B1: RsTAL: the TAL enzyme from Rhodobacter sphaeroides, 526 amino acids, SEQ ID NO:3 (protein)
chain: VKPMLAMSPPKPAVELDRHIDLDQAHAVASGGARIVLAPPARDRCRASEARLGAVIREARHVYGLTTGFGPLANRLISGENVRTLQANLVHHLASGVGPVLDWTTARAMVLARLVSIAQGASGASEGTIARLIDLLNSELAPAVPSRGTVGASGDLTPLAHMVLCLQGRGDFLDRDGTRLDGAEGLRRGRLQPLDLSHRDALALVNGTSAMTGIALVNAHACRHLGNWAVALTALLAECLRGRTEAWAAALSDLRPHPGQKDAAARLRARVDGSARVVRHVIAERRLDAGDIGTEPEAGQDAYSLRCAPQVLGAGFDTLAWHDRVLTIELNAVTDNPVFPPDGSVPALHGGNFMGQHVALTSDALATAVTVLAGLAERQIARLTDERLNRGLPPFLHRGPAGLNSGFMGAQVTATALLAEMRATGPASIHSISTNAANQDVVSLGTIAARLCREKIDRWAEILAILALCLAQAAELRCGSGLDGVSPAGKKLVQALREQFPPLETDRPLGQEIAALATHLLQQSPV
modifications: R. sphaeroides
What is called Km is the concentration of substrate that gives half-maximal velocity. As usually defined, the kcat is the maximal rate divided by the concentration of active sites. As to B1, the Km in series [1] (setting [4]) came to 60 µM; in series [2] it was 560 µM. Also, the values for the kcat in series [1] (setting [4]) and in series [2] were 0.02 s⁻¹ and 0.01 s⁻¹, respectively. Besides, the “TAL/PAL Ratio” value in series [1] (tyrosine versus phenylalanine as substrate) came to 19.

B2: wild-type PAL/TAL enzyme from the yeast Rhodosporidium: wild-type PAL/TAL enzyme from the yeast Rhodosporidium (protein, UniProt P11544 1-716, looked up)
Phenylalanine/tyrosine …: MAPSLDSISHSFANGVASAKQAVNGASTNLAVAGSHLPTTQVTQVDIVEKMLAAPTDSTLELDGYSLNLGDVVSAARKGRPVRVKDSDEIRSKIDKSVEFLRSQLSMSVYGVTTGFGGSADTRTEDAISLQKALLEHQLCGVLPSSFDSFRLGRGLENSLPLEVVRGAMTIRVNSLTRGHSAVRLVVLEALTNFLNHGITPIVPLRGTISASGDLSPLSYIAAAISGHPDSKVHVVHEGKEKILYAREAMALFNLEPVVLGPKEGLGLVNGTAVSASMATLALHDAHMLSLLSQSLTAMTVEAMVGHAGSFHPFLHDVTRPHPTQIEVAGNIRKLLEGSRFAVHHEEEVKVKDDEGILRQDRYPLRTSPQWLGPLVSDLIHAHAVLTIEAGQSTTDNPLIDVENKTSHHGGNFQAAAVANTMEKTRLGLAQIGKLNFTQLTEMLNAGMNRGLPSCLAAEDPSLSYHCKGLDIAAAAYTSELGHLANPVTTHVQPAEMANQAVNSLALISARRTTESNDVLSLLLATHLYCVLQAIDLRAIEFEFKKQFGPAIVSLIDQHFGSAMTGSNLRDELVEKVNKTLAKRLEQTNSYDLVPRWHDAFSFAAGTVVEVLSSTSLSLAAVNAWKVAAAESAISLTRQVRETFWSAASTSSPALSYLSPRTQILYAFVREELGVKARRGDVFLGKQEVTIGSNVSKIYEAIKSGRINNVLLKMLA
Consider B2, for which the “TAL/PAL ratio (TAL catalytic activity to PAL catalytic activity)” value in series [3] is given as 0.58.

B3: TAL enzyme from Trichosporon cutaneum: inducible TAL enzyme isolated from the yeast Trichosporon cutaneum (protein)
chain: MFIETNVAKPASTKAMNAGSAKAAPVEPFATYAHSQATKTVSIDGHTMKVGDVVAVARHGAKVELAASVAGPVRASVDFKESKKHTSIYGVTTGFGGSADTRTSDTEALQISLLEHQLCGFLPTDATYEGMLLAAMPIPIVRGAMAVRVNSCVRGHSGVRLEVLQSFADFINRGLVPCVPLRGTISASGDLSPLSYIAGAICGHPDVKVFDTAASPPTVLTSPEAIAKYGLKTVKLASKEGLGLVNGTAVSAAAGALALYDAECLAIMSQTNTVLTVEALDGHVGSFAPFIQEIRPHAGQIEAARNIRHMLGGSKLAVHEESELLADQDAGILRQDRYALRTSAQWIGPQLEALGLARQQIETELNSTTDNPLIDVEGGMFHHGGNFQAMAVTSAMDSARIVLQNLGKLSFAQVTELINCEMNHGLPSNLAGSEPSTNYHCKGLDIHCGAYCAELGFLANPMSNHVQSTEMHNQSVNSMAFASARRTMEANEVLSLLLGSQMYCATQALDLRVMEVKFKMAIVKLLNETLTKHFAAFLTPEQLAKLNTHAAITLYKRLNQTPSWDSAPRFEDAAKHLVGVIMDALMVNDDITDLTNLPKWKKEFAKEAGNLYRSILVATTADGRNDLEPAEYLGQTRAVYEAVRSELGVKVRRGDVAEGKSGKSIGSSVAKIVEAMRDGRLMGAVGKMF
modifications: T. cutaneum
As to B3, the PAL/TAL activity ratio in series [3] is recorded as 0.73.
